Reference: patent publication US20140072582A1

Molecular target: complement component C1q human serum (Sigma Cat#:C1740-0.5MG) (human) (UniProt P02745)
Experiment: ELISA, C1q coated on the plate

UniProt P02745, sequence (P02745 23-245 limits assumed, chain 1 of 3): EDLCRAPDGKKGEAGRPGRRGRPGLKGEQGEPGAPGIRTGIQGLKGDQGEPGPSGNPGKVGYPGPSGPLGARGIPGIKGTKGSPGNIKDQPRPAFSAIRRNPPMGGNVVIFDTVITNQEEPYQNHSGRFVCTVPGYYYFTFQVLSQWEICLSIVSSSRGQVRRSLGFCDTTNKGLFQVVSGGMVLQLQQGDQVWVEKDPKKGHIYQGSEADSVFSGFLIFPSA
UniProt P02745, sequence (P02746 28-253 limits assumed, chain 2 of 3, further chain): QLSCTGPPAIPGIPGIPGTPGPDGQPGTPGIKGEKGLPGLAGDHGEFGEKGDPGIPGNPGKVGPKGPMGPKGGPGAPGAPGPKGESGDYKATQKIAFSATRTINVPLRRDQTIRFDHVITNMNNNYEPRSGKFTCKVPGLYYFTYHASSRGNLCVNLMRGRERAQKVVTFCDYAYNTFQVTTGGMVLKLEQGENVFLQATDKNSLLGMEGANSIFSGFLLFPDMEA
UniProt P02745, sequence (P02747 29-245 limits assumed, chain 3 of 3, further chain): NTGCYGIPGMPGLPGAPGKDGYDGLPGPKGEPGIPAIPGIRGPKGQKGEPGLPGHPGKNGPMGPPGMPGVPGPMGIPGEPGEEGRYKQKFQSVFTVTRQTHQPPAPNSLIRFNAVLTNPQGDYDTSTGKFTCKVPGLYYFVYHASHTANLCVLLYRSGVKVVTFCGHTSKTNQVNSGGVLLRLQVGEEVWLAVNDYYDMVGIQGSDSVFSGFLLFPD

| Substance | EC50 [µg/mL] |
| --- | --- |
| GB4500 (Rituximab), anti-CD20 monoclonal antibody | 34.5 |
| GB7500 (Adalimumab), anti-TNF monoclonal antibody | 202 |
